The values that follow come from PMC3892207 (Journal of the American Chemical Society, 2013).

Numbering of substitutions follows the chain as printed. Numbers in names are those of the source.

Holding throughout (test): SEC
The target of data set [1] is T1, S100A9(C3S) with H105A (S100A9 subunit of CP-Ser(H105A)) (human, UniProt P06702 1-114, C3S | H105A).
T1 sequence (looked up): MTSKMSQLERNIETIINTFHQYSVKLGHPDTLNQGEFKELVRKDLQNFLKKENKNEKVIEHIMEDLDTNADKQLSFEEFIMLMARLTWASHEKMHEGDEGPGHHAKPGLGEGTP

Data set [2] addresses T2, S100A9(C3S) with K106A (S100A9 subunit of CP-Ser(K106A)) (human, UniProt P06702 1-114, C3S | K106A).
T2 sequence (looked up): T1 sequence (looked up) with A105H, K106A

Data set [3] addresses T3, S100A9(C3S) with E111A (S100A9 subunit of CP-Ser(E111A)) (human, UniProt P06702 1-114, C3S | E111A).
T3 sequence (looked up): T1 sequence (looked up) with A105H, E111A

The target of data set [4] is T4, S100A9(C3S) (human, UniProt P06702 1-90, C3S).
T4 sequence: T1 sequence (looked up) with A105H

For data set [5], the target named is T5, S100A9(C3S) truncated after residue 101 (S100A9 subunit of CP-Ser-Δ101) (human, UniProt P06702 1-90, C3S).
T5 sequence: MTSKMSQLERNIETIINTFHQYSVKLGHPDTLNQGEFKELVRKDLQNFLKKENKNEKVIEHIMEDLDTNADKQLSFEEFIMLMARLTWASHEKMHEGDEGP

Data set [6] addresses T6, human-mouse S100A9 chimera (S100A9 subunit of CP-Ser-mT) (human | mouse, UniProt P06702 1-90, C3S).
T6 sequence: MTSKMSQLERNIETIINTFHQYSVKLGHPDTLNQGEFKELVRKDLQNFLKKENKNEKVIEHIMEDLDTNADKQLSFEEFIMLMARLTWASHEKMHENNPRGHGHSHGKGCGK

The target in data set [7] is T7, S100A9(C3S) with E96A (S100A9 subunit of CP-Ser(E96A)) (human, UniProt P06702 1-114, C3S | E96A).
T7 sequence (looked up): T1 sequence (looked up) with E96A, A105H

In data set [8] the target is T8, S100A9(C3S) with D98A (S100A9 subunit of CP-Ser(D98A)) (human, UniProt P06702 1-114, C3S | D98A).
T8 sequence (looked up): T1 sequence (looked up) with D98A, A105H

The target of data set [9] is T9, S100A9(C3S) with E99A (S100A9 subunit of CP-Ser(E99A)) (human, UniProt P06702 1-114, C3S | E99A).
T9 sequence (looked up): T1 sequence (looked up) with E99A, A105H

Data set [10] has as its target T10, S100A9(C3S) with H103A (S100A9 subunit of CP-Ser(H103A)) (human, UniProt P06702 1-114, C3S | H103A).
T10 sequence (looked up): T1 sequence (looked up) with H103A, A105H

Data set [11] addresses T11, S100A9(C3S) with H104A (S100A9 subunit of CP-Ser(H104A)) (human, UniProt P06702 1-114, C3S | H104A).
T11 sequence (looked up): T1 sequence (looked up) with H104A, A105H

Data set [12] concerns the molecule itself.

B1: S100A8(C42S) (natural protein, human)
chain: MLTELEKALNSIIDVYHKYSLIKGNFHAVYRDDLKKLLETESPQYIRKKGADVWFKELDINTDGAVNFQEFLILVIKMGVAAHKKSHEESHKE
B1: the binding result in data set [1], in data set [2], in data set [3], in data set [4], in data set [5] and in data set [6] was “binds” each time. Moreover, the binding result in data set [7], in data set [8], in data set [9], in [10] and in data set [11] was “binds” throughout.

B2: CP-Ser-AAA (αβ heterodimer) (complex, human)
chain 1: B1 chain
chain 2: T1 sequence (looked up) with H103A, H104A
As to B2, the binding result in [12] was “binds”.

B3: CP-Ser-AHA (αβ heterodimer) (complex, human)
chain 1: B1 chain
chain 2: T1 sequence (looked up) with H103A
As to B3, the binding result in data set [12] is “binds”.

B4: CP-Ser-AAE (αβ heterodimer) (complex, human)
chain 1: B1 chain
chain 2: T1 sequence (looked up) with H103A, H104A, A105E
On to B4, for which, in data set [12], the binding result is given as “binds”.

B5: CP-Ser-AAA(L109H)(E111H) (αβ heterodimer) (complex, human)
chain 1: B1 chain
chain 2: T1 sequence (looked up) with H103A, H104A, L109H, E111H
Turning to B5, the binding result in data set [12] is listed as “binds”.

B6: CP-Ser(K106A) (αβ heterodimer) (complex, human)
chain 1: B1 chain
chain 2: T1 sequence (looked up) with A105H, K106A
Turning to B6, in data set [12], the binding result is listed as “binds”.

B7: CP-Ser-AAA(K106H) (αβ heterodimer) (complex, human)
chain 1: B1 chain
chain 2: T1 sequence (looked up) with H103A, H104A, K106H
Turning to B7, the binding result in [12] is on record as “binds”.

B8: CP-Ser(E111A) (αβ heterodimer) (complex, human)
chain 1: B1 chain
chain 2: T1 sequence (looked up) with A105H, E111A
Turning to B8, in data set [12], the binding result is “binds”.

B9: CP-Ser-AHA(K106H) (αβ heterodimer) (complex, human)
chain 1: B1 chain
chain 2: T1 sequence (looked up) with H103A, K106H
B9: the binding result in [12] is listed as “binds”.
